The results in this text go back to publication PMC10777020, “The N1 domain of the peroxisomal AAA-ATPase Pex6 is required for Pex15 binding and proper assembly with Pex1” (The Journal of Biological Chemistry, 2023).

In series [1] the test system is T1, Nc1ncnc2c1ncn2[C@@H]1O[C@H](COP(=O)(O)OP(=O)(O)OP(=O)(O)O)[C@@H](O)[C@H]1O.
T1 construct: heterohexamer of alternating Pex1 and Pex6
The experiment in a line: purified protein. Format: biochemical, Saccharomyces cerevisiae. Particulars: 30 °C, ATP varied, hydrolysis in D2 ring.

Series [2] addresses T2, Pex1/Pex6 (Pex1-FLAG/His-Pex6) (Saccharomyces cerevisiae, UniProt P24004+P33760).
T2 construct: heterohexamer of alternating Pex1 and Pex6
T2 sequence (P24004 1-1043): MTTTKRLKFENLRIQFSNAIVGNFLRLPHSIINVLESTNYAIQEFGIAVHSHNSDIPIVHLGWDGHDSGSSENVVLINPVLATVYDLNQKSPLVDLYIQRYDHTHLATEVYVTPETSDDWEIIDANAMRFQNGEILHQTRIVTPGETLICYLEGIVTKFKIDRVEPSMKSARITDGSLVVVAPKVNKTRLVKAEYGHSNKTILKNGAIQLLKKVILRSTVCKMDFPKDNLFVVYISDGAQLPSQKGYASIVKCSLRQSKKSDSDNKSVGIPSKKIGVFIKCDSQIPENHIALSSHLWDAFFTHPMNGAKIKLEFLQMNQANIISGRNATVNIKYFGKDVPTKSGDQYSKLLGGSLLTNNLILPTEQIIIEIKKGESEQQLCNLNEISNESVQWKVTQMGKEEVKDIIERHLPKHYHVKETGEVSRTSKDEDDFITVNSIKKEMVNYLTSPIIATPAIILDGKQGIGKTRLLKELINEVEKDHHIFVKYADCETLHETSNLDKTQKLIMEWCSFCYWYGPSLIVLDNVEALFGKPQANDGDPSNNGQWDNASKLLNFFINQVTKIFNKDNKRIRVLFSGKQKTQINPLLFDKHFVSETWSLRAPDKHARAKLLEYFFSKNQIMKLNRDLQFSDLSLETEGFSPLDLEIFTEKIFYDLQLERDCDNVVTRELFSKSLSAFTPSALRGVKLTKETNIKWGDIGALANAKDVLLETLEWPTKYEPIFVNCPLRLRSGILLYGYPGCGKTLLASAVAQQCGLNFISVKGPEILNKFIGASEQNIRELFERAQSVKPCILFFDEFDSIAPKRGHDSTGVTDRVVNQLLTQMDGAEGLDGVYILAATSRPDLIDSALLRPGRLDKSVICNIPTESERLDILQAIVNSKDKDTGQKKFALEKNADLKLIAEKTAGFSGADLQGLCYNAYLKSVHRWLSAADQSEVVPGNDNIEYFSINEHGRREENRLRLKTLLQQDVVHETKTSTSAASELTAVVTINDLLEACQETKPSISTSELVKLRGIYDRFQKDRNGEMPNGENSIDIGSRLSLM
T2 sequence (P33760 1-1030): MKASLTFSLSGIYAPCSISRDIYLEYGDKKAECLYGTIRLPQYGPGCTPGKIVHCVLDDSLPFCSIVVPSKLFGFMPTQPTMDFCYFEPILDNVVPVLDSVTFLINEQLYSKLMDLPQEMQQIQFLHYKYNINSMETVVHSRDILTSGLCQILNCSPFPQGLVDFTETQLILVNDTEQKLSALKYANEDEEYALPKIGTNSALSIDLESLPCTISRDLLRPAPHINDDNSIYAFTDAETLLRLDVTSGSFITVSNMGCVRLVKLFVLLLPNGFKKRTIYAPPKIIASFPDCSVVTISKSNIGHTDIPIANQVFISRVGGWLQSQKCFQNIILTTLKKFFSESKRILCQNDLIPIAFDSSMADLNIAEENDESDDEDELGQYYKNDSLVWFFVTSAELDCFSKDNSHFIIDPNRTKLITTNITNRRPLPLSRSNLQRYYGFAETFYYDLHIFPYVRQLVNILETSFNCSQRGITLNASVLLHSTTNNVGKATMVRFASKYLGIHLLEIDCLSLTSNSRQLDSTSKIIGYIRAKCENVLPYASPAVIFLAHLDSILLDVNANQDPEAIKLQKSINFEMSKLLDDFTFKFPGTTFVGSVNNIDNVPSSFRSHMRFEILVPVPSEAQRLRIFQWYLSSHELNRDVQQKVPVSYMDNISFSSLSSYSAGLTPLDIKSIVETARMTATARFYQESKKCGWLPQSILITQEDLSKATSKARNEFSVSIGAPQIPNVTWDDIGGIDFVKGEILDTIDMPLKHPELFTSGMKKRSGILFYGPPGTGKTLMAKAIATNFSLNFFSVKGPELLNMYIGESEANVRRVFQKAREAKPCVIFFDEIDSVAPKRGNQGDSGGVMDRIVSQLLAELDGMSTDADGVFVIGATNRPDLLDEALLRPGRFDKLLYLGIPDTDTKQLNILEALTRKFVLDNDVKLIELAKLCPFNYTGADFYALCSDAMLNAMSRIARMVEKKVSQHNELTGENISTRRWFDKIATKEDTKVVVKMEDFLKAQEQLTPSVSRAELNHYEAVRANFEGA
Briefly: cryo-EM structure, ~[…] Å D1, ~[…]-9 Å D2. The format is binding. Particulars: 1 mM ATP, pH 7.6, 10 mM MgCl2, with mEOS3.2-Pex15 1-309 (no substrate density in pore); ATP modelled in all D1 sites and four D2 sites.

For series [3], the target named is T3, Pex1/ΔN1-Pex6 (Saccharomyces cerevisiae, UniProt P24004+P33760).
T3 construct: Pex1 with C-terminal FLAG; Pex6 lacking first 184 residues (N1 domain) with N-terminal His tag; heterohexamer
T3 sequence (P24004 1-1043): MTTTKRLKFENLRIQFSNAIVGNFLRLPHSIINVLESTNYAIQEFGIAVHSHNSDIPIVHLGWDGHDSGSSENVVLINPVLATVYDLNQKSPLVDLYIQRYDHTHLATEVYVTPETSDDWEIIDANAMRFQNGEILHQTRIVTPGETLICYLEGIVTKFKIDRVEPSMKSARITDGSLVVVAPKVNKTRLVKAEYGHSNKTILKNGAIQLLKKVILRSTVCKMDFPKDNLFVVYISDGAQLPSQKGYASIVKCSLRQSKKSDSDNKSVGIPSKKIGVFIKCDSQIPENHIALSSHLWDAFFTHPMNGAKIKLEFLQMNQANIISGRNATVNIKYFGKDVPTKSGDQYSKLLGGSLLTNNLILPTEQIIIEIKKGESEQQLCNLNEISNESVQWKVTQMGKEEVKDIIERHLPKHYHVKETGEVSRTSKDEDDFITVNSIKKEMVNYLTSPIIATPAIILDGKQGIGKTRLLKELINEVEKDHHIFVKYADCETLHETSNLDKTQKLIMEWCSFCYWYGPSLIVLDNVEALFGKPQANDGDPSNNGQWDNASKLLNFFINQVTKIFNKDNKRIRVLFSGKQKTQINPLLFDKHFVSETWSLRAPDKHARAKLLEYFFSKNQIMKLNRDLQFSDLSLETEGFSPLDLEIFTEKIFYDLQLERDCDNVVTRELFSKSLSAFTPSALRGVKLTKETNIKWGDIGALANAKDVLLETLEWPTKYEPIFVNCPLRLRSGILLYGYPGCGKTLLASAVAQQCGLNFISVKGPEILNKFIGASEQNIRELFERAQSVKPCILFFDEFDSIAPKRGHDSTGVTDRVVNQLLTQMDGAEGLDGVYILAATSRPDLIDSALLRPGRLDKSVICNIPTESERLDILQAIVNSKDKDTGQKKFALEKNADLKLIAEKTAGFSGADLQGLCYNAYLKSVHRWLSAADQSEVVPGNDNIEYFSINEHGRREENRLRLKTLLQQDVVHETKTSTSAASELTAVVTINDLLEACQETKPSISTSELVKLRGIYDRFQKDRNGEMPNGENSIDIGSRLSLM
T3 sequence (P33760 185-1030): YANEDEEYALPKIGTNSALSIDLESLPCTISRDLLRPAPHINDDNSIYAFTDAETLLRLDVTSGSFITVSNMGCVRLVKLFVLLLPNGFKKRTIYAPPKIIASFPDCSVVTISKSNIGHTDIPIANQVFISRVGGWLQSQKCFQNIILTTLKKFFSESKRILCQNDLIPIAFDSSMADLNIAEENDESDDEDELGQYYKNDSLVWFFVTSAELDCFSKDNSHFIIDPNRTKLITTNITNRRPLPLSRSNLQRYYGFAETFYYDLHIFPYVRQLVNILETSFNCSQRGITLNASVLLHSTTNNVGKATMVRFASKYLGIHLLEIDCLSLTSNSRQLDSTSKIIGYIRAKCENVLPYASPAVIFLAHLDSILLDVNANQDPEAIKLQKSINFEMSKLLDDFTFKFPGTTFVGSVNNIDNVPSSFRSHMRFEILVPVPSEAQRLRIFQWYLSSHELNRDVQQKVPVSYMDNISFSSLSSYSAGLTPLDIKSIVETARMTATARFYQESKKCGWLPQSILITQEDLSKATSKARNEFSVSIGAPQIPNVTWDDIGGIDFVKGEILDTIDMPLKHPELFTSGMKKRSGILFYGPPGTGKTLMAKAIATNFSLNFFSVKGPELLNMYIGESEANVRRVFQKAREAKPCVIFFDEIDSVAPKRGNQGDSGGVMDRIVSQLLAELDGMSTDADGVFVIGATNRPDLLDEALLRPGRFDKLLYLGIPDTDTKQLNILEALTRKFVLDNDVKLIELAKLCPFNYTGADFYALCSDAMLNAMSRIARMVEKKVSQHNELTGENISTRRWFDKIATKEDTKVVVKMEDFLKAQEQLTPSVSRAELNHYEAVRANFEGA
The experiment in a line: enzyme-coupled ATPase assay. Format: biochemical. Conditions: 5 mM ATP, 30 °C.

The target in series [4] is T4, His-Pex6 (S. cerevisiae, UniProt P33760 1-1030).
T4 construct: Pex6, AAA-ATPase of S. cerevisiae; no limits stated for the construct; In all experiments it stood in a complex with Pex1-FLAG or a Pex1 variant; also called ScPex6; His-tagged Pex6; source: E. coli BL21*(DE3), co-expressed with Pex1-FLAG or its variants; in lysate, then purified (Ni-NTA, anti-FLAG, Superose6 Increase); not shown: His, N-terminal, kept
T4 sequence: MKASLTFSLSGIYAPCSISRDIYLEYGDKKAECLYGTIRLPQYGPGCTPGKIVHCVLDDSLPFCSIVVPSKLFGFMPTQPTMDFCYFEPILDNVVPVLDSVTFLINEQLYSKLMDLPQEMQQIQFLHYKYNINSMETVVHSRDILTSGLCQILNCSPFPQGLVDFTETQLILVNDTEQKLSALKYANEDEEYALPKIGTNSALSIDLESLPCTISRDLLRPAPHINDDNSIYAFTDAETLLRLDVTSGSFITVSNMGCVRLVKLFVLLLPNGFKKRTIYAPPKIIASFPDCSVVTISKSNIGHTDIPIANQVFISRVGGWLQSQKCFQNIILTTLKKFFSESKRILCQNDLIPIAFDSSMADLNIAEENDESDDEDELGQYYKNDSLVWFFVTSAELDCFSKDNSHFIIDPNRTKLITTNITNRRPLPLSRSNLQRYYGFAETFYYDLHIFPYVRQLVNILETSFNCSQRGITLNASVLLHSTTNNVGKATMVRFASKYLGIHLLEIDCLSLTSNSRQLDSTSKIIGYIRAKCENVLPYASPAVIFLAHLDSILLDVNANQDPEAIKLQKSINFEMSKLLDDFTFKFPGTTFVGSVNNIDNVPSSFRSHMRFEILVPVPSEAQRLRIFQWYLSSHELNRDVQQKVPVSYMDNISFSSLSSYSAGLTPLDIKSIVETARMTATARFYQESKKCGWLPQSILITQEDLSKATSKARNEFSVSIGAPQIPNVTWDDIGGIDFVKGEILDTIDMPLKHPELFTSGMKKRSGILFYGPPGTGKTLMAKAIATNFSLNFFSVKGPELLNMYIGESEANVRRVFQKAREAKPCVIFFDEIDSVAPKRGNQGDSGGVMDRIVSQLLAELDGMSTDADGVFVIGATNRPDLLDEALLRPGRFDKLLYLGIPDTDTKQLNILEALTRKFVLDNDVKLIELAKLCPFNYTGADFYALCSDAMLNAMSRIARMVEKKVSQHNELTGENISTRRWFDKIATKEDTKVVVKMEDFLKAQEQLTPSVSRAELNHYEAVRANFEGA
Briefly: cross-linking; photocrosslinking by AzF in Pex1 as above, in the absence or presence of 10 uM Pex15 1-309, Pex15 1-266 or Pex15 43-309; His-Pex6 stood in the complex with the Pex1 variant. Conditions: both partners purified.

The term Km denotes the substrate concentration at which the rate is half of its maximum. Consider “Pex1/Pex6 (Pex1-FLAG/His-Pex6) (Saccharomyces cerevisiae S288C; P24004:DEL941-967)”, for which the Km in series [1] came to 1030 µM. Turning to “Pex1/Pex6 (Pex1-FLAG/His-Pex6) (Saccharomyces cerevisiae S288C)”, the Km in series [1] is 230 µM.

As for `Nc1ncnc2c1ncn2[C@@H]1O[C@H](COP(=O)(O)OP(=O)(O)OP(=O)(O)O)[C@@H](O)[C@H]1O` [ATP], the “cryo-EM structure, ~4 Å D1, ~5-9 Å D2” value in series [2] is listed as “we find density for nucleotide in all the D1 ATPase domains, which we modeled as ATP”. Besides, in series [3], the “enzyme-coupled ATPase assay” value is “Pex1/ΔN1-Pex6 motor had ATPase activity comparable to WT Pex1/Pex6”.

B1: Pex15 1-309 (cytosolic domain of Pex15) (domain or fragment, S. cerevisiae, UniProt Q08215 1-309, looked up)
chain: MAASEIMNNLPMHSLDSSLRDLLNDDLFIESDESTKSVNDQRSEVFQECVNLFIKRDIKDCLEKMSEVGFIDITVFKSNPMILDLFVSACDIMPSFTKLGLTLQSEILNIFTLDTPQCIETRKIILGDLSKLLVINKFFRCCIKVIQFNLTDHTEQEEKTLELESIMSDFIFVYITKMRTTIDVVGLQELIEIFIFQVKVKLHHKKPSPNMYWALCKTLPKLSPTLKGLYLSKDVSIEDAILNSIDNKIQKDKAKSKGKQRGVKQKIHHFHEPMLHNSSEEQVKVEDAFNQRTSTDSRLQSTGTAPRKK
notes: also called Pex15's cytosolic domain
On to B1, for which, in series [4], the binding result was “binds”.

B2: Pex15 1-266 (domain or fragment, S. cerevisiae, UniProt Q08215 1-266, looked up)
chain: MAASEIMNNLPMHSLDSSLRDLLNDDLFIESDESTKSVNDQRSEVFQECVNLFIKRDIKDCLEKMSEVGFIDITVFKSNPMILDLFVSACDIMPSFTKLGLTLQSEILNIFTLDTPQCIETRKIILGDLSKLLVINKFFRCCIKVIQFNLTDHTEQEEKTLELESIMSDFIFVYITKMRTTIDVVGLQELIEIFIFQVKVKLHHKKPSPNMYWALCKTLPKLSPTLKGLYLSKDVSIEDAILNSIDNKIQKDKAKSKGKQRGVKQK
B2: in series [4], the binding result is given as “binds”.
